In the experiment the test system is peripheral blood mononuclear cells (PBMCs). Description: ELISPOT screening of healthy donor samples with 23 commercially available peptide pools. The following applies: healthy donors, responsive donors/donors tested in brackets. It counts as cell-based, human.

We go through one molecule from US11112401B2, “Method for determining the cell mediated immune competence of a subject” (Oxford Immunotec Limited, priority 2016, dated 2021).

B1: EBNA-3a Protein: Epstein barr nuclear antigen-3A as protein (number of peptides N/A) (protein, UniProt P12977 1-944, looked up)
Epstein-Barr nuclear antigen 3: MDKDRPGPPALDDNMEEEVPSTSVVQEQVSAGDWENVLIELSDSSSEKEAEDAHLEPAQKGTKRKRVDHDAGGSAPARPMLPPQPDLPGREAILRRFPLDLRTLLQAIGAAATRIDTRAIDQFFGSQISNTEMYIMYAMAIRQAIRDRRRNPASRRDQAKWRLQTLAAGWPMGYQAYSSWMYSYTDHQTTPTFVHLQATLGCTGGRRCHVTFSAGTFKLPRCTPGDRQWLYVQSSVGNIVQSCNPRYSIFFDYMAIHRSLTKIWEEVLTPDQRVSFMEFLGFLQRTDLSYIKSFVSDALGTTSIQTPWIDDNPSTETAQAWNAGFLRGRAYGIDLLRTEGEHVEGATGETREESEDTESDGDDEDLPCIVSRGGPKVKRPPIFIRRLHRLLLMRAGKRTEQGKEVLEKARGSTYGTPRPPVPKPRPEVPQSDETATSHGSAQVPEPPTIHLAAQGMAYPLHEQHGMAPCPVAQAPPTPLPPVSPGDQLPGVFSDGRVACAPVPAPAGPIVRPWEPSLTQAAGQAFAPVRPQHMPVEPVPVPTVALERPVYPKPVRPAPPKIAMQGPGETSGIRRARERWRPAPWTPNPPRSPSQMSVRDRLARLRAEAQVKQASVEVQPPQLTQVSPQQPMEGPLVPEQQMFPGAPFSQVADVVRAPGVPAMQPQYFDLPLIQPISQGAPVAPLRASMGPVPPVPATQPQYFDIPLTEPINQGASAAHFLPQQPMEGPLVPEQWMFPGAALSQSVRPGVAQSQYFDLPLTQPINHGAPAAHFLHQPPMEGPWVPEQWMFQGAPPSQGTDVVQHQLDALGYTLHGLNHPGVPVSPAVNQYHLSQAAFGLPIDEDESGEGSDTSEPCEALDLSIHGRPCPQAPEWPVQEEGGQDATEVLDLSIHGRPRPRTPEWPVQGEGGQNVTGPETRRVVVSAVVHMCQDDEFPDLQDPPDEA
On to B1, for which the “Percentage Responsive (10 spot arbitrary cut off)” value is 13% (19/137.
